This is an account of results in patent publication US20110123440A1.

In this experiment the target is human FcRn (soluble recombinant, 6XHis, co-expressed with beta2 microglobulin) (human). The experiment can be described thus: luminex binding assay, pH 6.
Sequence of human FcRn (soluble recombinant, 6XHis, co-expressed with beta2 microglobulin) (human) (P55899 other isoform, or with tags, fused parts or gaps): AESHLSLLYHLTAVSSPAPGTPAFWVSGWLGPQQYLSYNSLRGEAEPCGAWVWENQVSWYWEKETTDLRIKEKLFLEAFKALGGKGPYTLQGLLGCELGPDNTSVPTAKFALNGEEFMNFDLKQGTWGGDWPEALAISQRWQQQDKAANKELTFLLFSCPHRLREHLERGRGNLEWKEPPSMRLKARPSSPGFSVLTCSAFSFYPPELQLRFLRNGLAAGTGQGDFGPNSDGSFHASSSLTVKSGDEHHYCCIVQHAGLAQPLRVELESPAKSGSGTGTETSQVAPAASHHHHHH
With “anti-CD30 antibody (5F11) Fc variant A378P”, the FcRn binding at pH 6 (fold difference vs wild type anti-CD30) (fold vs wild type) was found to be 0.6.

“anti-CD30 antibody (5F11) Fc variant D376T”: the FcRn binding at pH 6 (fold difference vs wild type anti-CD30) (fold vs wild type) is 1.6. In the case of “anti-CD30 antibody (5F11) Fc variant E345W”, the FcRn binding at pH 6 (fold difference vs wild type anti-CD30) (fold vs wild type) amounted to 1.3. For the substance “anti-CD30 antibody (5F11) Fc variant E356K”, the FcRn binding at pH 6 (fold difference vs wild type anti-CD30) (fold vs wild type) came out at 1.4. With “anti-CD30 antibody (5F11) Fc variant F404W” the figure was 1.7. On to “anti-CD30 antibody (5F11) Fc variant G446W”, for which the FcRn binding at pH 6 (fold difference vs wild type anti-CD30) (fold vs wild type) was determined as 1.1. With “anti-CD30 antibody (5F11) Fc variant P247I”, the FcRn binding at pH 6 (fold difference vs wild type anti-CD30) (fold vs wild type) was 1.1. For “anti-CD30 antibody (5F11) Fc variant P396I”, the FcRn binding at pH 6 (fold difference vs wild type anti-CD30) (fold vs wild type) was determined as 1.4. Regarding “anti-CD30 antibody (5F11) Fc variant S254W”, the FcRn binding at pH 6 (fold difference vs wild type anti-CD30) (fold vs wild type) worked out at 0.2.

Turning to “anti-CD30 antibody (5F11) Fc variant S354R”, the FcRn binding at pH 6 (fold difference vs wild type anti-CD30) (fold vs wild type) was 1.3. On to “anti-CD30 antibody (5F11) Fc variant S426W”, for which the FcRn binding at pH 6 (fold difference vs wild type anti-CD30) (fold vs wild type) is 0.6.
